Assay results reported in PMC11919473, “Synthesis and characterisation of DOTA‐kisspeptin‐10 as a potential gallium‐68/lutetium‐177 pan‐tumour radiopharmaceutical” (Journal of Neuroendocrinology, 2025).
Read-outs that look alike come from different tables or passages of the source.

Columns and labels:
[1] = format: in vitro ADME, human
Experimental: The red blood cell (RBC) binding assay was performed by the method described by Shi and co‐workers.[22] In brief, radiolabelled [^68Ga]Ga‐DOTA‐KP10 (740 kBq in 10 μL) was mixed with 100 μL of human blood drawn up in the presence of heparin. The mixture was incubated in a shaking incubator at 37°C. Samples ([…]) were collected at two time points, 10 and 30 min. Plasma and blood cells were separated by centrifugation (2000 rpm, 5 min). The plasma was removed, and the blood cells were washed twice with 500 μL of normal saline (0.9% NaCl) that was then added to the plasma fraction. The amount (%) of labelled compound that was bound to the RBC was determined by the ratio of distribution between the plasma and blood cell fraction.[22]

[2] = format: in vitro ADME
Experimental: The protein binding assay was done as described by Mdlophane et al.[18] In brief, [^68Ga]Ga‐DOTA‐KP10 was incubated for 0, 60 and 120 min in serum at 37°C. Proteins were precipitated in ice‐cold acetonitrile (500 μL) and centrifuged (5000 rpm, 10 min). The supernatant was removed, and the protein pellet was washed with acetonitrile (250 μL). The washed protein pellets and supernatants were measured in an automated gamma‐counter (Hidex, Finland).

in vivo = assay: in vivo; parameters: species or system Sprague–Dawley rats; settings: rat; for tissue uptake at 2.5 h: male, Sprague-Dawley, iv, 18.8 MBq, total radioactivity
Experimental: After the final image was acquired (150 min postinjection), the animals were euthanised and ex vivo biodistribution was performed. Euthanasia was performed by an overdose of isoflurane (without waking up post‐scan) followed by decapitation. A quantitative analysis of the radioactivity biodistribution and uptake in various organs of the rats was conducted. Following micro‐PET/CT imaging, the anesthetised animals were euthanised by decapitation and blood was collected into pre‐weighed BD SST vacutainer tubes (thermos Fisher Scientific, Johannesburg, South Africa). The blood samples were centrifuged (6000 rpm, 5 min) to separate the serum from the blood cells. The blood and serum along with the other dissected tissues and organs (heart, liver, spleen, intestines, testes, stomach, lungs and brain) were weighed, and the radioactivity was measured in the automated gamma counter (Hidex AMG, Turku, Finland). The radioactivity per organ was expressed as the percentage injected dose per gram of the organ (% ID/g). […] Data collected from the ex vivo biodistribution were evaluated using the Kruskal–Wallis analysis. A chi‐squared that was less than the H‐statistic was used to indicate significant differences between the concentrations within regions of interest. Organs were measured for activity and expressed as the percentage injected dose per gram of the organ (%ID/g). A multipoint regression model (exponential fit) was used to estimate blood‐half life.

physchem = format: physicochemical
Experimental: The method published by Jain and co‐workers was used.[21] Briefly, 100 μL (± 100 MBq) of the labelled [^68Ga]Ga‐DOTA‐KP10 was dispersed in a 1‐mL phosphate‐buffered saline (PBS) and octanol mixture (0.9:1). The samples were vortexed (1 min) and then centrifuged (5 min, 6000 rpm). A sample (200 μL) from each phase was taken, and the activity was measured in the Hidex AMG automated gamma counter (Turku, Finland). The partition coefficient (log P) was expressed as the logarithm of the ratio of counts from the n‐octanol fraction versus that of the aqueous fraction.[21], [22]

[3] = parameters: species or system Sprague–Dawley rats; settings: rat, in vivo, iv
Excerpt: All procedures followed during the animal studies adhered to institutional and South African national guidelines for the care and use of laboratory animals (SANS10386:2021). Ethical approval for the study was obtained from the Research Animal Ethics Committee of North-West University (NWU-00560-19-S5) and the University of Pretoria (149/2019), South Africa. The animals were provided by the Department of Science and Technology/North-West University Preclinical Drug Development Platform (PCDDP) Vivarium. The study was conducted at the Preclinical Imaging Facility (PCIF) of the Nuclear Medicine Research Infrastructure (NuMeRI), South Africa. Five healthy Sprague-Dawley rats (male, 6-8 weeks, ±200 g) were enrolled into the study. All animals had ad libitum access to a conventional rodent diet and water. Animals were maintained on a 12-h artificial day/night cycle and supplied with corn cob bedding and nesting material for cage enrichment. […] Hybrid images were viewed and analysed using the InterviewFusionTM software (Mediso, Hungary). A qualitative visual analysis was done on all acquisitions, and blood standardized uptake value values were calculated. […] Data collected from the ex vivo biodistribution were evaluated using the Kruskal-Wallis analysis. […] Organs were measured for activity and expressed as the percentage injected dose per gram of the organ (%ID/g). […]

[4] = format: in vitro ADME, human; remark: listed apart in the source
Experimental: Stability studies were performed in triplicate using [^68Ga]Ga‐DOTA‐KP10 spiked human serum, plasma or whole blood (samples were removed at 5, 60 and 120 min with incubation at 37°C). […] The samples taken (200 μL) at the selected time points were treated with ice‐cold acetonitrile (500 μL) and thereafter filtered with a 0.22‐μm filter to remove all residual proteins in the extract. This sample was then analysed by the HPLC method as described under Section 2.2.4.

KISS1R = target: T1, KISS1R (Homo sapiens, UniProt Q969F8); assay: Inositol phosphate (IP) accumulation assay in HEK 293‐T cells transiently transfected with KISS1R; format: cell-based; settings: for EC50: HEK 293‐T cells expressing KISS1R
T1 construct: expressed in transfected cells; host or cells: HEK 293-T cells, transient transfection with XtremeGene HP
T1 sequence (Q969F8 whole entry): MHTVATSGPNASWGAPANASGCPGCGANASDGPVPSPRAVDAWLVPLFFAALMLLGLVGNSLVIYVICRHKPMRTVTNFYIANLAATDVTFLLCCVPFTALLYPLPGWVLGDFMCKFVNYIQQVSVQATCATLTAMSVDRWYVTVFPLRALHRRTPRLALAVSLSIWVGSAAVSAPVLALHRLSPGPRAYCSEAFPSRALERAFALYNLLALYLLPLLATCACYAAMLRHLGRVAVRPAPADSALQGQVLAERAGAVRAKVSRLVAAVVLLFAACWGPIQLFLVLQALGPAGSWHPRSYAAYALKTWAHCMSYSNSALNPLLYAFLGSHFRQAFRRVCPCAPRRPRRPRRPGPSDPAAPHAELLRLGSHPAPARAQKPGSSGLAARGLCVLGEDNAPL
Experimental: HEK 293‐T cell culturing and the IP accumulation assay were performed as described by Newton et al.[15], [16] The IP assay measures the response of the cells to ligands that is a measure of the binding affinity and stimulation of intracellular signalling. This assay was applied to determine whether the novel ligand retained the same or improved activity as KP10.
HEK 293‐T cells were cultured and maintained using DMEM (10% FBS) media supplemented with Glutamax at 37°C, 5% CO2 and 95% relative humidity. HEK 293‐T cells were passaged at 90% confluency using Trypsin. HEK 293‐T cells were plated out into 24‐well plates at a density of 1 × 10^5 cells/well. Each well was pre‐coated with Matrigel at a 1:30 dilution to ensure adhesion to the well. KISS1R gene construct was transiently transfected into the HEK 293‐T cells at a concentration of 10 ng/μL of KISS1R using XtremeGene HP (1:2 ratio) DNA transfection reagent. Cells were incubated overnight at 37°C at 5% CO2.
For the IP assay, the HEK 293‐T cells were incubated with myoinositol‐[2‐3H] […] The radiolabelled IPs were separated using a Dowex 100–200 mesh resin ion‐exchange chromatography, and the radioactivity (cpm) was measured using liquid scintillation (Packard Tricarb 2100 TR liquid scintillation analyser TRI‐CARB 4910TR 110 V Liquid Scintillation Counter, Perkin‐Elmer, USA). […] The results were analysed by doing sigmoidal regression to determine the EC 50 and then compared with their respective normalised ligand signalling assay.
The accumulation of the IPs measured for cells transfected with XtremeGene without KISS1R and treated with maximal stimulation of KP10 (1 × 10^−6 M) was subtracted from the measured accumulation of cells stimulated with DOTA‐KP10 over a dose range ([…]–1 × 10^−6 M) that were transfected with KISS1R in the same assay.
For the IP assay, the data were fitted using a nonlinear regression to determine Emax and EC50. Data collected from the ex vivo biodistribution were evaluated using the Kruskal–Wallis analysis. […]

CC(C)C[C@H](NC(=O)CNC(=O)[C@H](Cc1ccccc1)NC(=O)[C@H](CO)NC(=O)[C@H](CC(N)=O)NC(=O)[C@H](Cc1c[nH]c2ccccc12)NC(=O)[C@H](CC(N)=O)NC(=O)[C@H](Cc1ccc(O)cc1)NC(=O)CN1CCN(CC(=O)O)CCN(CC(=O)O)CCN(CC(=O)O)CC1)C(=O)N[C@@H](CCCNC(=N)N)C(=O)N[C@@H](Cc1ccccc1)C(N)=O [[^68Ga]Ga‐DOTA‐KP10, metal not drawn]
Binding to red blood cells at 10 min [1]: 6.72 ± 0.37%
Binding to red blood cells at 30 min [1]: 6.35 ± 2.7%
Radioactivity bound to plasma proteins after initiating the incubation (0 min) [2]: 28.2 ± 1.35%
Radioactivity bound to plasma proteins at 2 h [2]: 67.99 ± 3.56%
tissue uptake at 2.5 h (in vivo; Ex vivo radioactivity in kidneys): 1.5 ± 0.2 %ID/g
tissue uptake at 2.5 h (in vivo; Ex vivo radioactivity in organs other than kidneys): < 0.5 %ID/g
Serum:blood ratio (in vivo): sixfold to eightfold
logD (physchem): -2
Accumulation in the brain or lungs on micro‐PET/CT [3]: no noticeable accumulation
Uptake in the hypothalamus on micro‐PET/CT images [3]: No uptake was observed
Stability in plasma at 5 min [4]: formation of a degradation product
Stability in whole blood at 5 min [4]: formation of a degradation product

CC(C)C[C@H](NC(=O)CNC(=O)[C@H](Cc1ccccc1)NC(=O)[C@H](CO)NC(=O)[C@H](CC(N)=O)NC(=O)[C@H](Cc1c[nH]c2ccccc12)NC(=O)[C@H](CC(N)=O)NC(=O)[C@H](Cc1ccc(O)cc1)NC(=O)CN1CCN(CC(=O)O)CCN(CC(=O)O)CCN(CC(=O)O)CC1)C(=O)N[C@@H](CCCNC(=N)N)C(=O)N[C@@H](Cc1ccccc1)C(N)=O [DOTA‐KP10]
EC50 (KISS1R; four independent experiments, read-out: EC50): 3.99 nM
Emax (KISS1R; HEK-293T, KP10 maximal response set at 100%, read-out: Maximal response as % of that of KP10): 97.8%

CC(C)C[C@H](NC(=O)CNC(=O)[C@H](Cc1ccccc1)NC(=O)[C@H](CO)NC(=O)[C@H](CC(N)=O)NC(=O)[C@H](Cc1c[nH]c2ccccc12)NC(=O)[C@H](CC(N)=O)NC(=O)[C@@H](N)Cc1ccc(O)cc1)C(=O)N[C@@H](CCCNC(=N)N)C(=O)N[C@@H](Cc1ccccc1)C(N)=O [KP10, kisspeptin‐10]
EC50 (KISS1R; 1 h ligand incubation at 37°C, 10 mM LiCl, mean ± SEM, N = 4, read-out: EC50 Mean nM ± SEM (N = 4)): 1.87 ± 0.095 nM
